According to FireProtDB (doi:10.1021/bi00432a026):

Settings: Aspergillus oryzae (strain ATCC 42149 / RIB 40), DSC, reversible: yes, whole UniProt chain shown; for denaturant m value / denaturant midpoint (higher = more stable) / unfolding free energy: Urea; for Tm / heat capacity change of unfolding / unfolding enthalpy (calorimetric): Thermal
[1] = pH 2.8, 27.75 °C, glycine 30 mM

B1: Guanyl-specific ribonuclease T1 wild type, P00651 (protein)
chain: MMYSKLLTLTTLLLPTALALPSLVERACDYTCGSNCYSSSDVSTAQAAGYQLHEDGETVGSNSYPHKYNNYEGFDFSVSSPYYEWPILSSGDVYSGGSPGADRVVFNENNQLAGVITHTGASGNNFVECT
- denaturant m value (pH 2.8, 17.1 °C, glycine 30 mM): 2.44 kcal/mol/M
- denaturant midpoint (higher = more stable) (pH 2.8, 17.1 °C, glycine 30 mM): 2.25 M
- unfolding free energy (pH 2.8, 17.1 °C, glycine 30 mM): 5.41 kcal/mol
- denaturant m value (pH 2.8, 21.1 °C, glycine 30 mM): 2.43 kcal/mol/M
- denaturant midpoint (higher = more stable) (pH 2.8, 21.1 °C, glycine 30 mM): 2.02 M
- unfolding free energy (pH 2.8, 21.1 °C, glycine 30 mM): 4.85 kcal/mol
- denaturant m value (pH 2.8, 24.9 °C, glycine 30 mM): 2.33 kcal/mol/M
- denaturant midpoint (higher = more stable) (pH 2.8, 24.9 °C, glycine 30 mM): 1.8 M
- unfolding free energy (pH 2.8, 24.9 °C, glycine 30 mM): 4.33 kcal/mol
- denaturant m value [1]: 2.45 kcal/mol/M
- denaturant midpoint (higher = more stable) [1]: 1.44 M
- unfolding free energy [1]: 3.48 kcal/mol
- Tm (pH 2.8, glycine 30 mM): 42.6 °C
- heat capacity change of unfolding (pH 2.8, glycine 30 mM): 2.2 kcal/mol/K
- unfolding enthalpy (calorimetric) (pH 2.8, glycine 30 mM): 95 kcal/mol
- denaturant m value (pH 5.95, 19.05 °C, MES 30 mM): 1.19 kcal/mol/M
- denaturant midpoint (higher = more stable) (pH 5.95, 19.05 °C, MES 30 mM): 6.64 M
- unfolding free energy (pH 5.95, 19.05 °C, MES 30 mM): 7.94 kcal/mol
- denaturant m value (pH 5.95, 22 °C, MES 30 mM): 1.19 kcal/mol/M
- denaturant midpoint (higher = more stable) (pH 5.95, 22 °C, MES 30 mM): 6.32 M
- unfolding free energy (pH 5.95, 22 °C, MES 30 mM): 7.55 kcal/mol
- denaturant m value (pH 5.95, 29.1 °C, MES 30 mM): 1.18 kcal/mol/M
- denaturant midpoint (higher = more stable) (pH 5.95, 29.1 °C, MES 30 mM): 5.45 M
- unfolding free energy (pH 5.95, 29.1 °C, MES 30 mM): 6.51 kcal/mol
- Tm (pH 5.95, MES 30 mM): 52.8 °C
- heat capacity change of unfolding (pH 5.95, MES 30 mM): 1.49 kcal/mol/K
- unfolding enthalpy (calorimetric) (pH 5.95, MES 30 mM): 104 kcal/mol
- denaturant m value (pH 7, 19.2 °C, MOPS 30 mM): 1.21 kcal/mol/M
- denaturant midpoint (higher = more stable) (pH 7, 19.2 °C, MOPS 30 mM): 5.26 M
- unfolding free energy (pH 7, 19.2 °C, MOPS 30 mM): 6.29 kcal/mol
- denaturant m value (pH 7, 21.1 °C, MOPS 30 mM): 1.1 kcal/mol/M
- denaturant midpoint (higher = more stable) (pH 7, 21.1 °C, MOPS 30 mM): 4.98 M
- unfolding free energy (pH 7, 21.1 °C, MOPS 30 mM): 5.95 kcal/mol
- denaturant m value (pH 7, 23.05 °C, MOPS 30 mM): 1.2 kcal/mol/M
- denaturant midpoint (higher = more stable) (pH 7, 23.05 °C, MOPS 30 mM): 4.86 M
- unfolding free energy (pH 7, 23.05 °C, MOPS 30 mM): 5.81 kcal/mol
- denaturant m value (pH 7, 25 °C, MOPS 30 mM): 1.2 kcal/mol/M
- denaturant midpoint (higher = more stable) (pH 7, 25 °C, MOPS 30 mM): 4.58 M
- unfolding free energy (pH 7, 25 °C, MOPS 30 mM): 5.47 kcal/mol
- denaturant m value (pH 7, 27 °C, MOPS 30 mM): 1.2 kcal/mol/M
- denaturant midpoint (higher = more stable) (pH 7, 27 °C, MOPS 30 mM): 4.14 M
- unfolding free energy (pH 7, 27 °C, MOPS 30 mM): 4.95 kcal/mol
- denaturant m value (pH 7, 29 °C, MOPS 30 mM): 1.27 kcal/mol/M
- denaturant midpoint (higher = more stable) (pH 7, 29 °C, MOPS 30 mM): 3.93 M
- unfolding free energy (pH 7, 29 °C, MOPS 30 mM): 4.7 kcal/mol
- Tm (pH 7, MOPS 30 mM): 48.2 °C
- heat capacity change of unfolding (pH 7, MOPS 30 mM): 1.72 kcal/mol/K
- unfolding enthalpy (calorimetric) (pH 7, MOPS 30 mM): 95.2 kcal/mol
- denaturant m value (pH 7.9, 19.05 °C, HEPPSO 30 mM): 1.11 kcal/mol/M
- denaturant midpoint (higher = more stable) (pH 7.9, 19.05 °C, HEPPSO 30 mM): 4.19 M
- unfolding free energy (pH 7.9, 19.05 °C, HEPPSO 30 mM): 5.01 kcal/mol
- denaturant m value (pH 7.9, 22 °C, HEPPSO 30 mM): 1.25 kcal/mol/M
- denaturant midpoint (higher = more stable) (pH 7.9, 22 °C, HEPPSO 30 mM): 3.91 M
- unfolding free energy (pH 7.9, 22 °C, HEPPSO 30 mM): 4.67 kcal/mol
- denaturant m value (pH 7.9, 25 °C, HEPPSO 30 mM): 1.28 kcal/mol/M
- denaturant midpoint (higher = more stable) (pH 7.9, 25 °C, HEPPSO 30 mM): 3.44 M
- unfolding free energy (pH 7.9, 25 °C, HEPPSO 30 mM): 4.11 kcal/mol
- denaturant m value (pH 7.9, 28.95 °C, HEPPSO 30 mM): 1.19 kcal/mol/M
- denaturant midpoint (higher = more stable) (pH 7.9, 28.95 °C, HEPPSO 30 mM): 2.95 M
- unfolding free energy (pH 7.9, 28.95 °C, HEPPSO 30 mM): 3.52 kcal/mol
- Tm (pH 7.9, HEPPSO 30 mM): 43.3 °C
- heat capacity change of unfolding (pH 7.9, HEPPSO 30 mM): 1.65 kcal/mol/K
- unfolding enthalpy (calorimetric) (pH 7.9, HEPPSO 30 mM): 87.1 kcal/mol
